According to patent CN104231083A (GMAX BIOPHARM CO LTD, dated 2014):

B1: 单克隆抗体A-1 (antibody, V domains shown)
VH: QIQLVQSGPELKKPGETVKISCKASGYTFTNYGMNWVKQAPGKGLKWMGWINTNTGEPTYVEEFKGRFAFSLETSDSTAYLQINNLKNEDTATYFCANLYWGQGTTLTVSS
VL: DVLMTQTPLSLPVSLGDQASISCRSSQNILHSNGNTYLEWYLQKPGQSPKLLIFKVSNRFSGVPDRFSGSGSGTDFTLKISRVEAEDLGVYYCFQGSHVPWTFGGGTKLEIK
notes: Mouse monoclonal antibody; Tested as hybridoma supernatant (FACS) and as purified antibody / antibody supernatant (cAMP assay); also called L1H1
B2: 单克隆抗体A-2 (antibody, V domains shown)
VH: QIQLVQSGPELKKPGETVKISCKASGYTFTNYGMNWVKQAPGKGLKWMGWINTYNGEPTYADDFKGRCAFFLETSASTAYLQLNNLKNEDTATYFCTREYYISNYGAMDYWGQGTSVTVSS
VL: DIQMTQTTSSLSASLGDRVTISCRASQDISNYLNWYQQKPDGTVKLLIYYTSRLHSGVPSRFSGSGSGADYSLTIANLDQEDIATYFCQQGILFPLTFGAGTKLELK
notes: Mouse monoclonal antibody; Tested as hybridoma supernatant (FACS) and as purified antibody / antibody supernatant (cAMP assay); also called L2H2
B3: 单克隆抗体A-3 (antibody, V domains shown)
VH: EVKLVESGGGLVQPGGSRKLSCAASGFPFSDYGLAWFRQAPGKGPEWVAFISNLAYSTYYADTVTGRFTISRENAKNTLFLEMSSLRSEDTAMYYCARDRGLFDYWGQGTTLTVSS
VL: DVVMTQIPLSLPVSLGDQASISCRSSQSLVHSNGNTYLHWYLQKPGQSPKLLIYKVSNRFSGVPDRFSGSGSGTDFTLKISRVEAEDLGVYFCSQSTHVPPYTFGGGTKLEIKR
notes: Mouse monoclonal antibody; Tested as hybridoma supernatant (FACS) and as purified antibody / antibody supernatant (cAMP assay); also called L3H3

The binders below were run against T1, 人胰高血糖素受体 (human glucagon receptor) (human, UniProt P47871 26-477) (assay: flow cytometry, hybridoma supernatant on CHO-DHFR-hGCGR cells).
T1 construct: Overexpressed on stably transfected CHO-DHFR- cells; also called hGCGR; GCGR
T1 sequence (P47871 26-477 limits assumed): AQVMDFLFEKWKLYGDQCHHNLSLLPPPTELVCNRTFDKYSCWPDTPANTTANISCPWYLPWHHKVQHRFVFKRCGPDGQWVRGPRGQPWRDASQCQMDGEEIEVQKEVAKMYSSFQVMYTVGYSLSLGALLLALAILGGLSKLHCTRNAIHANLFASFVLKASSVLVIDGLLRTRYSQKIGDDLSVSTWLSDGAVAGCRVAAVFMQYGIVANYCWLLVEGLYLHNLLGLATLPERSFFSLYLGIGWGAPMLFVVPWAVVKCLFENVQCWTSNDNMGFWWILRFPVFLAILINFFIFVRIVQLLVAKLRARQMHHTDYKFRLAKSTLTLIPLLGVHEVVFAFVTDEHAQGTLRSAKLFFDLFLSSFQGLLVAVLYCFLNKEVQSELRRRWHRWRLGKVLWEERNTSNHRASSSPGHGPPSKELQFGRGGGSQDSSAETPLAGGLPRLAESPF

Binding result, binds:
B1
B2
B3
